Data: patent US20160068592A1 (SEOUL NATIONAL UNIVERSITY R AND DB FOUNDATION, published 2016)

How the values were obtained:
[1] = target: T1, MG4 domain mutant d332-348 Fc fusion protein (human, UniProt P01031 367-469); assay: immunoblot after SDS-PAGE
T1 construct: not shown: hinge region and CH2-CH3 domain of human IgG1
Source text: (§1) MG4 domain of the beta chain and five mutants from which the MG4 domain is sequentially removed from N-terminus of the MG4 domain were cloned. The primers were designed to add SfiI restriction sites at both the 5′ and 3′ ends (Table 13). The amplified PCR fragments were digested with SfiI and cloned into modified pCEP4 vector containing the hinge region and CH2-CH3 domain of human IgG1 at the 3′ region of the cloning site. These clones were transfected and Fc fusion proteins were purified as described in Example 5. The purified Fc fusion proteins were subjected to SDS-PAGE, and immunoblotting was performed as described above.

[2] = target: T2, MG4 domain mutant d332-378 Fc fusion protein (human, UniProt P01031 397-469); assay: immunoblot after SDS-PAGE
T2 construct: not shown: hinge region and CH2-CH3 domain of human IgG1
Source text: as §1

[3] = target: T3, MG4 domain mutant d332-396 Fc fusion protein (human, UniProt P01031 415-469); assay: immunoblot after SDS-PAGE
T3 construct: not shown: hinge region and CH2-CH3 domain of human IgG1
Source text: as §1

[4] = target: T4, beta chain of human C5 protein (human, UniProt P01031 19-673); assay: immunoblot, SDS-PAGE under reducing condition
T4 construct: Seen as the beta-chain band of C5 on SDS-PAGE under reducing condition; also called C5 beta-chain

[5] = target: T5, Fc fusion protein having an MG4 domain (human, UniProt P01031 350-469); assay: immunoblot of beta-chain domain Fc fusion proteins
T5 construct: Amplified with MG4_F/MG4_R and cloned by SfiI into modified pCEP4; also called hMG4; MG4 domain of the C5 beta chain as Fc fusion protein; not shown: hinge region and CH2-CH3 domain of human IgG1, 3' of the cloning site

B1: HRA-06-H2-1 (antibody, human IgG2, kappa, V domains shown)
VH: EVQLVESGGGLVQPGGSLRLSCAASGFSFSGRYWIQWVRQAPGKGLEWVASVWPGITGDTNYANWAKGRFTISRDDSKNTLYLQMNSLRAEDTAVYYCAREPVAWGGGLDLWGQGTLVTVSS
VL: DIQMTQSPSSLSASVGDRVTITCQASQSINNQLSWYQQKPGKAPKLLIYYASTLASGVPSRFSGSGSGTDFTLTISSLQPEDFATYYCQGSYYSGGWDYGFGQGTKVEIKR
notes: also called anti-complement C5 antibody HRA-06-H2-1; C5 Antibody (HRA-06-H2-1)
[1]
  binding result: no binding
[2]
  binding result: no binding
[3]
  binding result: no binding
[4]
  binding result: binds
[5]
  binding result: binds
